Results published in paper PMC3608532, “Characterization of a Single-Chain Variable Fragment Recognizing a Linear Epitope of Aβ: A Biotechnical Tool for Studies on Alzheimer’s Disease?” (PLoS ONE, 2013).

Legend:
Assay in all cases: SPR; Biacore X; Aβ peptides coupled via the C-terminal cysteine to a CM5 chip; IC16 injected (10 to 1000 nM), 20 µl/min, PBS, 25°C; global fit, bivalent binding model
Settings in all cases: both partners purified
[1] = target: T1, Aβ(1-8)-GSGSC (human)
T1 construct: amyloid-β peptide (Aβ), cut from the amyloid precursor protein (APP), human, residues 1-8; C-terminal spacer with the cysteine by which the peptide was coupled to the chip; source: synthetic peptide, bought: JPT
T1 chain: DAEFRHDSGSGSC

[2] = target: T2, Aβ(2-8)-GSGSC (human)
T2 construct: amyloid-β peptide (Aβ), cut from the amyloid precursor protein (APP), human, residues 2-8; C-terminal spacer with the cysteine by which the peptide was coupled to the chip; source: synthetic peptide, bought: JPT
T2 chain: AEFRHDSGSGSC

[3] = target: T3, Aβ(3-8)-GSGSC (human)
T3 construct: amyloid-β peptide (Aβ), cut from the amyloid precursor protein (APP), human, residues 3-8; C-terminal spacer with the cysteine by which the peptide was coupled to the chip; source: synthetic peptide, bought: JPT
T3 chain: EFRHDSGSGSC

B1: monoclonal IgG2a antibody IC16 (antibody, V domains shown)
VH: QVTLKESGPGILQPSQTLSLTCSFSGFSLSTSGMGVSWIRQPSGKGLEWLAHIFWDDDKNYNPSLKSRLTVSKDTSRNQVFLKITSVDTSDTATYYCARSPHLRGYDVDFDYWGQGTTLTVSS
VL: DVLMTQTPLSLPVSLGDQASISCRSSQSLVHSNGNTYLHWYLQKPGQSPKVLIYKVSNRFSGVPDRFSGSGSGTDFTLKISRVEAEDLGVYFCSQSTHVPLTFGAGTKLELK
notes: IgG2a; raised in a PrP knockout mouse against KLH Aβ(1-16); also called monoclonal parent antibody IC16; source: IC16 hybridoma (mouse); copies: 2 + 2
- Kd [1]: 51 nM
- koff [1]: 0.0018 s⁻¹
- kon [1]: 35000 M⁻¹ s⁻¹
- Kd [2]: 32 nM
- koff [2]: 0.00154 s⁻¹
- kon [2]: 48500 M⁻¹ s⁻¹
- Kd [3]: 82 nM
- koff [3]: 0.00343 s⁻¹
- kon [3]: 41700 M⁻¹ s⁻¹
